To fix the notation:
B1: Triggering receptor expressed on myeloid cells 2 (Homo sapiens), Q9NZC2 (parent)
chain: MEPLRLLILLFVTELSGAHNTTVFQGVAGQSLQVSCPYDSMKHWGRRKAWCRQLGEKGPCQRVVSTHNLWLLSFLRRWNGSTAITDDTLGGTLTITLRNLQPHDAGLYQCQSLHGSEADTLRKVLVEVLADPLDHRDAGDLWFPGESESFEDAHVEHSISRSLLEGEIPFPPTSILLLLACIFLIKILAASALWAAAWHGQKPGTHPPSELDCGHDPGYQLQTLPGLRDT

The record followed here is IntAct's records for PubMed 29611543.

The variants in the assay derive from B1. The following applies: with psn1_human PSEN1, P49768.
Turning to T66M, the “effect of a mutation on the interaction” value is listed as “with no effect”. Next, T96K: “with no effect”; R47H: “with no effect”.
